# Data taken from patent US20260022175A1.
# Assays:
# Assay in all cases: SPR Biacore 8k+ 25C, antibody captured, FcγR analyte; mean
# [1] = target: cynomolgus monkey FcγRIIa3 extracellular domain with His tag (cynomolgus monkey)
# [2] = target: human FcγRIIa(R) extracellular domain with C-terminal His tag (human) (UniProt P12318)
# [3] = target: human FcγRIIb extracellular domain with C-terminal His tag (human) (UniProt P31994)
# [4] = target: cynomolgus monkey FcγRIIa2 extracellular domain with His tag (cynomolgus monkey)
# [5] = target: human FcγRIIIa(F) extracellular domain with C-terminal His tag (human) (UniProt P08637)
# [6] = target: cynomolgus monkey FcγRIIa1 extracellular domain with His tag (cynomolgus monkey)
# [7] = target: human FcγRIIIa(V) extracellular domain with C-terminal His tag (human) (UniProt P08637)
# [8] = target: cynomolgus monkey FcγRIIb extracellular domain with His tag (cynomolgus monkey)
# [9] = target: cynomolgus monkey FcγRIa extracellular domain with His tag (cynomolgus monkey)
# [10] = target: human FcγRIa extracellular domain with C-terminal His tag (human) (UniProt P12314)
# [11] = target: cynomolgus monkey FcγRIIIa(R) extracellular domain with His tag (cynomolgus monkey) (UniProt Q8SPW2)
# [12] = target: cynomolgus monkey FcγRIIIa(S) extracellular domain with His tag (cynomolgus monkey) (UniProt Q8SPW2)
# [13] = target: human FcγRIIa(H) extracellular domain with C-terminal His tag (human) (UniProt P12318)
# human FcγRIIa(H) extracellular domain with C-terminal His tag (human), sequence (P12318 34-217): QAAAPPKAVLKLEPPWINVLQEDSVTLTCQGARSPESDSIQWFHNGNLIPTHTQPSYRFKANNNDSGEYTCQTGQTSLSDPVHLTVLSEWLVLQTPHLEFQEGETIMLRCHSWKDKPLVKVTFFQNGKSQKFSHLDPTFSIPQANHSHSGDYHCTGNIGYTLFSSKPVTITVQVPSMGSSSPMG
# cynomolgus monkey FcγRIIIa(R) extracellular domain with His tag (cynomolgus monkey), sequence (Q8SPW2 other isoform, or with tags, fused parts or gaps): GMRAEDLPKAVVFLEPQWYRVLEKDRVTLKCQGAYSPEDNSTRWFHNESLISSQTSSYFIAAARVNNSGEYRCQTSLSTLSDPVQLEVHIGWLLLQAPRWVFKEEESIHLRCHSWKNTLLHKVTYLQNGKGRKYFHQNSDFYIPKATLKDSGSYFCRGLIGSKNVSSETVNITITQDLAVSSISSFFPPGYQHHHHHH
# cynomolgus monkey FcγRIIb extracellular domain with His tag (cynomolgus monkey), sequence (chain, as listed by the source): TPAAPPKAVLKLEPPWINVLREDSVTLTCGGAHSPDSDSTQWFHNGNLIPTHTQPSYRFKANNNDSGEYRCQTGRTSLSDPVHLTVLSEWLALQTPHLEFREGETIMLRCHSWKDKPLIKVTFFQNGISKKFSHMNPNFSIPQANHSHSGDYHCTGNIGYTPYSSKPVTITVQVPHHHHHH
# human FcγRIa extracellular domain with C-terminal His tag (human), sequence (P12314 other isoform, or with tags, fused parts or gaps): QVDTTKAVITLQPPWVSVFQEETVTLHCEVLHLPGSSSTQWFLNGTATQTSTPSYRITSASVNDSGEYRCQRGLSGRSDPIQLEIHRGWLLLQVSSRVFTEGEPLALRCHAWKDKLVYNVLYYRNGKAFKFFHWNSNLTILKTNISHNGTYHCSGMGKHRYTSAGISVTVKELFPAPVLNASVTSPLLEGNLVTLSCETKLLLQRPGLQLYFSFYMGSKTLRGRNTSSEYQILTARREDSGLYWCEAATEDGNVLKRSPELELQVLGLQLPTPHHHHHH
# cynomolgus monkey FcγRIIIa(S) extracellular domain with His tag (cynomolgus monkey), sequence (Q8SPW2 other isoform, or with tags, fused parts or gaps): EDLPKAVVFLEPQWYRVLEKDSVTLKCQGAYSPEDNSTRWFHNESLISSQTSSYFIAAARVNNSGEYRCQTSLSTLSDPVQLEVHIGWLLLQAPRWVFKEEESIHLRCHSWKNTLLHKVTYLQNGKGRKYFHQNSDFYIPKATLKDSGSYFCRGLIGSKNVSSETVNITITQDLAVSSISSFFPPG
# cynomolgus monkey FcγRIIa3 extracellular domain with His tag (cynomolgus monkey), sequence (chain, as listed by the source): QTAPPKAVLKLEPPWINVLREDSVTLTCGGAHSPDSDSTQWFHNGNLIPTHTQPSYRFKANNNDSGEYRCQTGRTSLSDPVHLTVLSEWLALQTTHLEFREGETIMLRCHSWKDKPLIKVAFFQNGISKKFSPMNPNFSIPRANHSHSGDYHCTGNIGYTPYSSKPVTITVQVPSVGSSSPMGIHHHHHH
# cynomolgus monkey FcγRIa extracellular domain with His tag (cynomolgus monkey), sequence (P12314 other isoform, or with tags, fused parts or gaps): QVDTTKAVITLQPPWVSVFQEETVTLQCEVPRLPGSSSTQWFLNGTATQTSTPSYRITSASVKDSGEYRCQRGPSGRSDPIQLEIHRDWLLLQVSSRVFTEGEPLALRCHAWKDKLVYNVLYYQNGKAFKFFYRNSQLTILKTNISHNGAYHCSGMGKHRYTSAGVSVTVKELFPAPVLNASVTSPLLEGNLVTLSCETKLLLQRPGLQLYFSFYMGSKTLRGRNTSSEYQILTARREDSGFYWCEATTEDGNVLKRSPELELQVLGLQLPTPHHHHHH
# human FcγRIIa(R) extracellular domain with C-terminal His tag (human), sequence (P12318 34-217 H167R): as the sequence (P12318 34-217) above, with H134R counted along it
# human FcγRIIIa(V) extracellular domain with C-terminal His tag (human), sequence (P08637 other isoform, or with tags, fused parts or gaps): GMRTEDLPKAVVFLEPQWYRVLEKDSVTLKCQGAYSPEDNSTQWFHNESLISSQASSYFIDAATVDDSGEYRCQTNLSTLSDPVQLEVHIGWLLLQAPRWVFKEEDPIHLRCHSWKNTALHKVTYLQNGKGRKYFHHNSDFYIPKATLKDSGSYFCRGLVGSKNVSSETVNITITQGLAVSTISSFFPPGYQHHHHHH
# human FcγRIIb extracellular domain with C-terminal His tag (human), sequence (P31994 other isoform, or with tags, fused parts or gaps): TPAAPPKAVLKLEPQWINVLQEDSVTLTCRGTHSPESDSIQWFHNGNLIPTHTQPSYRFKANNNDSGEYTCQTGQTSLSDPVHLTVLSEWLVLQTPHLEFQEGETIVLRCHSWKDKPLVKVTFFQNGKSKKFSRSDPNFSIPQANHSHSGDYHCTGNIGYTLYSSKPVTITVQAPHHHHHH
# human FcγRIIIa(F) extracellular domain with C-terminal His tag (human), sequence (P08637 other isoform, or with tags, fused parts or gaps): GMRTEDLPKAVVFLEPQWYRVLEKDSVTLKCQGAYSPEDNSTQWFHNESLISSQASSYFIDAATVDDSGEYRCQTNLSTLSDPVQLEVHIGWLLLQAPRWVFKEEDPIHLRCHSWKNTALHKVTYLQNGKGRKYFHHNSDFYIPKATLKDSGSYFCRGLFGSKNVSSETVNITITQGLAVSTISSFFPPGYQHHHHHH
# cynomolgus monkey FcγRIIa2 extracellular domain with His tag (cynomolgus monkey), sequence (chain, as listed by the source): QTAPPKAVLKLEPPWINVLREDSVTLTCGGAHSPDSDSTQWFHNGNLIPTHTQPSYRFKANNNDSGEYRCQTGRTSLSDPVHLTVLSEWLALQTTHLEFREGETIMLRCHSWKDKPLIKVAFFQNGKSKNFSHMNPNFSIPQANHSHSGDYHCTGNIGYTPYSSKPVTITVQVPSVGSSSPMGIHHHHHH
# cynomolgus monkey FcγRIIa1 extracellular domain with His tag (cynomolgus monkey), sequence (chain, as listed by the source): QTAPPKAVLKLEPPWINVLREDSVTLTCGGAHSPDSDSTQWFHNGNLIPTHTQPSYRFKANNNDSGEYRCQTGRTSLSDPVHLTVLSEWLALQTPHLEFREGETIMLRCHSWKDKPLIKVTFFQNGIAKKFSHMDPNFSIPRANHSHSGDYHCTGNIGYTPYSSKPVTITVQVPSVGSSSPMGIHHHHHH
substance,measurement,setting,value
Tremfya (Janssen Pharmaceutical K.K) (antibody),Kd,[1],39800 nM
same,Kd,[2],1880 nM
same,Kd,[3],16500 nM
same,Kd,[4],7530 nM
same,Kd,[5],9090 nM
same,Kd,[6],6800 nM
same,Kd,[7],1020 nM
same,Kd,[8],5670 nM
same,Kd,[9],0.0109 nM
same,Kd,[10],0.0908 nM
same,Kd,[11],579 nM
same,Kd,[12],497 nM
same,Kd,[13],1250 nM
